PMC9942873 (Immunity, 2023)

Assays:
Assay in all cases: ELISA
Settings in all cases: both partners purified
Pfs48/45 D3 [1] = target: T1, Pfs48/45 D3 (Plasmodium falciparum 3D7, UniProt Q8I6T1)
[2] = target: T2, recombinant full-length Pfs48/45 (Plasmodium falciparum 3D7, UniProt Q8I6T1)
Pfs48/45 D2-3 [3] = target: T3, Pfs48/45 D2-3 (Plasmodium falciparum 3D7, UniProt Q8I6T1)
Pfs48/45 D3 [4] = target: T1, Pfs48/45 D3; remark: listed apart in the source
[5] = target: T2, recombinant full-length Pfs48/45; remark: listed apart in the source
Pfs48/45 D1-2 = Pfs48/45 D1-2 (Plasmodium falciparum 3D7, UniProt Q8I6T1)
Pfs48/45 D1-2, sequence (Q8I6T1 28-289): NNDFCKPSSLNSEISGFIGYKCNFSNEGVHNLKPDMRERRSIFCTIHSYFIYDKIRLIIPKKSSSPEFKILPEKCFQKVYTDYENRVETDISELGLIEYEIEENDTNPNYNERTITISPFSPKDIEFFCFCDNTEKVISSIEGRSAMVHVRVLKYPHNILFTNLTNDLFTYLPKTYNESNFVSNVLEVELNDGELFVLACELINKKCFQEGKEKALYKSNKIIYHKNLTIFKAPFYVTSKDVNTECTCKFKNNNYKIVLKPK

Pfs48/45 D2-3 [6] = target: T3, Pfs48/45 D2-3; remark: listed apart in the source

T3 sequence (Q8I6T1 184-428): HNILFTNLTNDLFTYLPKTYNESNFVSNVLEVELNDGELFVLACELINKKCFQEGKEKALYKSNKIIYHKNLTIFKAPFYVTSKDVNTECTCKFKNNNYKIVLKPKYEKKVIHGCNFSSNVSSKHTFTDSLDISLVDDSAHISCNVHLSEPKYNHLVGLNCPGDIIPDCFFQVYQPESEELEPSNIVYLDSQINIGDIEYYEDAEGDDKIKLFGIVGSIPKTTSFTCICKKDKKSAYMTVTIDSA
T2 sequence (Q8I6T1 28-428): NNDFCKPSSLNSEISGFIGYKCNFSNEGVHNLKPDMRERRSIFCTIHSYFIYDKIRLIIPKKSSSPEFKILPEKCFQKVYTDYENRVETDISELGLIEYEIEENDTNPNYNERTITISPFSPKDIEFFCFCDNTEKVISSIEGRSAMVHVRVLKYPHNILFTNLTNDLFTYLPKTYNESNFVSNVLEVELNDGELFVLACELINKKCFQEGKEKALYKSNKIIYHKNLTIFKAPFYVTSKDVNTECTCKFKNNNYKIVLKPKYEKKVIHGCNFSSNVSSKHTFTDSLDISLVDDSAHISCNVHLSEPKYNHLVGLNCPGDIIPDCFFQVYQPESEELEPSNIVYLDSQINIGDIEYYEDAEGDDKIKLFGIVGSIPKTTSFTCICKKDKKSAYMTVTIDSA
T1 sequence (Q8I6T1 287-428): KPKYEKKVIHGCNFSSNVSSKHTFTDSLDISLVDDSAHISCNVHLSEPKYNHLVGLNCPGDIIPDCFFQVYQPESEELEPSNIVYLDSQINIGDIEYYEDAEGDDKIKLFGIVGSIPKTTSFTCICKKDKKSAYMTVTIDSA

B1: RUPA-89 (antibody, V domains shown)
VH: DVYLLESGGGLVQPGGSLRLSCAASGFTFSNDAMSWVRQAPGKGLEWVSGILASAPRTYYADSVKGRFIISRDNSKNTLYLQMNSLRVEDTAIYYCAKEGILRPFDPWGQGTLVTVSS
VL: QSALTQPASMSGSPGQSITISCTGTSSDVGGFKYVSWYQHHPDKAPKLIIYEVNQRPSGVSNRFSGSKSGNTASLTISGLQAEDEADYYCSSYTSITYHHVFGTGTKVTVL
notes: human IgG1; source: recombinant human IgG1, 293T (Protein A purified) or GenScript
binding result (Pfs48/45 D3 [1]): binds | binding result [2]: binds | binding result (Pfs48/45 D2-3 [3]): binds

B2: RUPA-100 (antibody, V domains shown)
VH: QVQLVESGGGVVQPGRSLRLSCAASGFSFSHYGMHWVRQAPGKGLEWVAVISYDGNYKYYGDSVKGRFTISRDNFKNTLYLQMNSLRPEDTAVYYCAKGKAHSCVSTSCYTDFWGQGTLVTVPS
VL: SYELTQPPSVSVSPGQTARITCSGDALPKKYAYWYQQKSGQAPVLVIYEDSKRPSGIPERFSGSSSGTMATLTISGAQVEDEGDYYCYSTDSSYNHRGVFGGGTKLTVL
notes: as for B1
binding result (Pfs48/45 D3 [1]): binds | binding result [2]: binds | binding result (Pfs48/45 D2-3 [3]): binds

B3: RUPA-106 (antibody, V domains shown)
VH: EVELLESGGGLVQPGGSLRISCAASGFIFNTYAMSWVRQAPGKGLEWVSAISGSGRSTYYADSVKGRFTISRDNSNNTLYLQMNSLRAEDTAVYYCAKDTHSNILYYLFDYWGQGTLVTVSS
VL: EIVLTQSPATLSLSPGERGTLSCRASQSVSSSYLGWYQQKPGQAPRLLIYGASSRATGIPDRFSGSGSGTDFTLTISRLEPEDFAVYYCHQYGISPATFGQGTKVEIK
notes: as for B1
binding result (Pfs48/45 D3 [1]): binds | binding result [2]: binds | binding result (Pfs48/45 D2-3 [3]): binds

B4: RUPA-34 (antibody, V domains shown)
VH: EVQLVESGGGLIQPGGSLRLSCAASGFTVSSNYMSWVRQAPGKGLEWVSVIYSGGSGGSTYYADSVKGRFTISRDNLKNTLYLQMNNLRAEDAAVYYCVRDSRGWGYFDDWGQGTLVTVSS
VL: EVVLTQSPGTLSLSPGERATLSCRASQSIRTNYLAWYQQKPGQTPRLLIYGASSRATGIPDRFSGSGSGTDFTLTISRLEPEDFAVYFCQQYQNSPWTFGQGTKVEIK
notes: as for B1
binding result (Pfs48/45 D3 [4]): no binding (tested: 10 ug/ml) | binding result [5]: binds | binding result (Pfs48/45 D1-2): binds | binding result (Pfs48/45 D2-3 [6]): binds

B5: RUPA-41 (antibody, V domains shown)
VH: QVQLVQSGAELKKPGASVKVSCKASGYTFTSHDITWVRQAAGQGLEWMGWMNPNTGDKGYAQKFQGRVTLTRNMSTRTAYMELNSLTSEDTAVYYCARGVGTYHGAGGWFDPWGQGTLVTVSS
VL: QSVVTQPPSVSETPGQRVTISCSGSSSNIGSNIVSWYQQLPGTAPKLLIYSDTQRPSGVPDRFSASKSGTSASLAISGLHSEDEADYYCATWDDSLKRGVFGGGTKLTVL
notes: as for B1
binding result (Pfs48/45 D3 [4]): no binding (tested: 10 ug/ml) | binding result [5]: binds | binding result (Pfs48/45 D1-2): binds | binding result (Pfs48/45 D2-3 [6]): binds

B6: RUPA-42 (antibody, V domains shown)
VH: QVQLQESGPGLVKPSQTLSLTCTVSGGSISSGGYYWSWIRQHPGKGLEWIGYIYYSGTTYYHPSLESRVTISVDTSKNQFSLKLNSVTAADTAIYYCARAGLVAAIRGSRRGQQGDYFDHWGQGTLVTVSS
VL: SYELTQPPSVSVSPGQTASITCSGEKLGDRYVSWYQQKPGQSPLLVLHQDKKRPSGIPERFSGSNSGNTATLTISGTQALDEADYFCQAWDSSTGVFGGGTKLTVL
notes: as for B1
binding result (Pfs48/45 D3 [4]): binds | binding result [5]: binds | binding result (Pfs48/45 D1-2): no binding (tested: 10 ug/ml) | binding result (Pfs48/45 D2-3 [6]): binds

B7: RUPA-43 (antibody, V domains shown)
VH: QVLLVQSGAEVKKPGASVKVSCKASGYTFLYHDISWVRQATGQGLEWMGWMNPNTGDTGYAQRFQGRVTMTRDMSISTAYLELGSLSSEDTAVYYCARGVGSYHGSGGWLDPWGQGTLVIVSS
VL: QSVLTQPPSVSETPGQRVTISCSGTSSNIGINTVNWYQQLPGTAPKLLIHNDNQRPSGVPDRFAGSKSGSSAALAISGLQSEDEADYYCGTWDDSLKRRVFGGGTKLTVL
notes: as for B1
binding result (Pfs48/45 D3 [4]): no binding (tested: 10 ug/ml) | binding result [5]: binds | binding result (Pfs48/45 D1-2): binds | binding result (Pfs48/45 D2-3 [6]): binds
